From the PETadex activity labels (doi:10.1016/j.jhazmat.2023.131574) come the findings set out here.

Sequences and labels used below:
B1: unnamed (protein)
chain: MSNGYSACPAPYDHRGMRKHASLLAALPVLLAACGTTTSTLTTPAVTPQTLSGAATNPYERGPAPTTALLEAARGPYATASTTVPRSSVSDFGGATIYYPTSTADGTFGGVAISPGYTGTQASVAWLGPRLASHGFVVIVIDTLSRYDYPSSRGDQLRAALRYLTTSSAVRTRVDATRLAVMGHSMGGGGALEAAKDNPALKAAIPLTPWNTDKSWPELTTPTLIFGAQNDSVAPVSSHAIPFYTSLASTLPKAYLELRGASHGAPTSTNTTIAKYAVAWLKRFEDADRRYDPFLCPTPAVSTLLSDARSTCPFN
B2: unnamed (protein)
chain: MSNGYSACPAPYDHRGMRKHASLLAALPVLLAACGTTTSTLTTPAVTPQTLSGAATNPYERGPAPTTALLEAARGPYATASTTVPRSSVSDFGGATIYYPTSTADGTFGGVAISPGYTGTQASVAWLGPRLASHGFVVIVIDTLSRYDYPSSRGDQLRAALRYLTTSSAVRTRVDATRLAVMGHSMGGGGALEAAKDNPALKAAIPLTPWNTDKSWPELTTPTLIFGAQNDSVAPVSSHAIPFYTSLASTLPKAYLELRGASHGAPTSTNTTIAKYAVAWLKRFDADARRYDPFLCPTPAVSTLLSDARSTCPFN
B3: unnamed (protein)
chain: MDGVLWRVRTAALMAALLALAAWALVWASPSVEAQSNPYQRGPNPTRSALTADGPFSVATYTVSRLSVSGFGGGVIYYPTGTSLTFGGIAMSPGYTADASSLAWLGRRLASHGFVVLVINTNSRFDGPDSRASQLSAALNYLRTSSPSAVRARLDANRLAVAGHSMGGGGTLRIAEQNPSLKAAVPLTPWHTDKTFNTSVPVLIVGAEADTVAPVSQHAIPFYQNLPSTTPKVYVELCNASHIAPNSNNAAISVYTISWMKLWVDNDTRYRQFLCNVNDPALCDFRTNNRHCQ

Substrate in one data set: p-NP-C10
Test: not given
Particulars: 50 °C.
With B1, the Km – broadly, the substrate concentration at which the rate is half of its maximum – was determined as 930 µM; the kcat (as a rule, the maximal rate divided by the concentration of active sites) was 2.47 s⁻¹; the kcat/Km – broadly, the second-order rate constant that governs catalysis at low substrate concentration – was found to be 2660 M⁻¹ s⁻¹.

Substrate in another data set: p-NP-C2
Test: not given
Particulars: 50 °C.
Consider B1, for which the Km was found to be 900 µM, the kcat stood at 27.5 s⁻¹ and the kcat/Km worked out at 30600 M⁻¹ s⁻¹.

Substrate in a further data set: p-NP-C4
Test: not given
Particulars: 50 °C.
Take B1: the Km is 190 µM, the kcat stood at 30.8 s⁻¹ and the kcat/Km was 162000 M⁻¹ s⁻¹.

Substrate in another data set: p-NP-C8
Test: not given
Particulars: 50 °C.
B1: the Km turned out to be 1290 µM, the kcat is 11.3 s⁻¹ and the specificity constant (kcat/Km) was 8780 M⁻¹ s⁻¹.

Substrate in the next data set: PCL; PBS; PHA; PLA; PUR
The data set is described as follows: Proxy for plastic degradation [Weight/mass loss]. Particulars: pH 7; 24 h.
With B2, the “Proxy for plastic degradation” value worked out at 79%.

Substrate in the next data set: p-NP-C10
Test: not given
Particulars: 60 °C.
As to B3, the Km is 2680 µM, the kcat came out at 8.11 s⁻¹ and the kcat/Km was found to be 3030 M⁻¹ s⁻¹.

Substrate in another data set: p-NP-C2
Test: not given
As to conditions: 60 °C.
As for B3, the Km is 7310 µM, the kcat turned out to be 159 s⁻¹ and the kcat/Km came out at 21800 M⁻¹ s⁻¹.

Substrate in another data set: p-NP-C4
Test: not given
Particulars: 60 °C.
As to B3, the Km was 760 µM, the kcat stood at 137 s⁻¹ and the kcat/Km was 180000 M⁻¹ s⁻¹.

Substrate in a further data set: p-NP-C8
Test: not given
As to conditions: 60 °C.
On to B3, for which the Km was determined as 7440 µM, the kcat was found to be 107 s⁻¹ and the kcat/Km worked out at 14300 M⁻¹ s⁻¹.
